Values joined by “and” are separate entries in the source; they are usually repeats but may differ in a detail not shown here. Equal entries are not always repeated.
Target: aortic smooth muscle actin (alpha-smooth muscle actin) (bovine) (UniProt P62739)
Assay: co-sedimentation

## aortic smooth muscle actin (alpha-smooth muscle actin) (from UniProt P62739 3-377) (natural protein)
  percent of actin in the pellet (actin alone): 10% and 20%
  percent of actin in the pellet (with anti-aSM-1 at 1:16 antibody/actin): > 60%

Reference: paper PMC2199961
